Source: publication PMC5387307, “Diversification of the kinetic properties of yeast NADP‐glutamate‐dehydrogenase isozymes proceeds independently of their evolutionary origin” (MicrobiologyOpen, 2016)
Like-named read-outs stand apart in the source and are kept apart here.

Assays:
LkGdh1 = tested on: T1, LkGdh1; assay: NADPH absorbance at […] nm, reductive amination; format: biochemical, Lachancea kluyveri; conditions: 100 mmol/L Tris pH 7.5, 30°C
T1 construct: gene GDH1; full-length ORF in pET-28a(+), His-tagged, expressed in E. coli BL21, Ni-NTA purified; monomer 54 kD apparent; glutamate IC50: native enzyme in WT extract

purified protein [1] = substrate: NC(=O)C1=CN([C@@H]2O[C@H](COP(=O)(O)OP(=O)(O)OC[C@H]3O[C@@H](n4cnc5c(N)ncnc54)[C@H](OP(=O)(O)O)[C@@H]3O)[C@@H](O)[C@H]2O)C=CC1; assay: purified protein; format: biochemical, Saccharomyces cerevisiae; conditions: 8 mmol/L α-KG, 100 mmol/L ammonium chloride, 100 mmol/L Tris pH 7.5, 30°C
purified protein [2] = substrate: O=C(O)CCC(=O)C(=O)O; assay: purified protein; format: biochemical, Saccharomyces cerevisiae; conditions: 250 μmol/L NADPH, 100 mmol/L ammonium chloride, 100 mmol/L Tris pH 7.5, 30°C
purified protein [3] = substrate: N; assay: purified protein; conditions: 8 mmol/L α-KG, 250 μmol/L NADPH, 100 mmol/L Tris pH 7.5, 30°C

Molecule	Km (purified protein [1]) [µmol/L]	kcat (purified protein [1]) [s⁻¹]	Km (purified protein [2]) [mmol/L]	kcat (purified protein [2]) [s⁻¹]	Km (purified protein [3]) [mmol/L]	kcat (purified protein [3]) [s⁻¹]	also measured
N [NH4+]	–	–	–	–	–	–	Km (LkGdh1; 8 mmol/L α-KG, 250 μmol/L NADPH, read-out: pH 7.5 / K m-NH4+): 7400 µM
NC(=O)C1=CN([C@@H]2O[C@H](COP(=O)(O)OP(=O)(O)OC[C@H]3O[C@@H](n4cnc5c(N)ncnc54)[C@H](OP(=O)(O)O)[C@@H]3O)[C@@H](O)[C@H]2O)C=CC1 [NADPH]	–	–	–	–	–	–	Km (LkGdh1; 8 mmol/L α-KG, 100 mmol/L ammonium chloride, read-out: pH 7.5 / K m-NADPH): 46 µM
O=C(O)CCC(=O)C(=O)O [α-KG]	–	–	–	–	–	–	Km (LkGdh1; 250 μmol/L NADPH, 100 mmol/L ammonium chloride, read-out: pH 7.5 / K m-α-KG): 460 µM
ScGdh1 (Saccharomyces cerevisiae S288C) (protein, full-length ORF in pET-28a(+), His-tagged, expressed in E. coli BL21, Ni-NTA purified; monomer 53 kD apparent) SEPEFQQAYEEVVSSLEDSTLFEQHPEYRKVLPIVSVPERIIQFRVTWENDKGEQEVAQGYRVQYNSAKGPYKGGLRFHPSVNLSILKFLGFEQIFKNSLTGLDMGGGKGGLCVDLKGRSNNEIRRICYAFMRELSRHIGQDTDVPAGDIGVGGREIGYLFGAYRSYKNSWEGVLTGKGLNWGGSLIRPEATGYGLVYYTQAMIDYATNGKESFEGKRVTISGSGNVAQYAALKVIELGGTVVSLSDSKGCIISETGITSEQVADISSAKVNFKSLEQIVNEYSTFSENKVQYIAGARPWTHVQKVDIALPCATQNEVSGEEAKALVAQGVKFIAEGSNMGSTPEAIAVFETARSTATGPSEAVWYGPPKAANLGGVAVSGLEMAQNSQRITWTSERVDQELKRIMINCFNECIDYAKKYTKDGKVLPSLVKGANIASFIKVSDAMFDQGDVF	45	13	0.37	13	8.6	13	–
ScGdh3 (Saccharomyces cerevisiae S288C) (protein, full-length ORF in pET-28a(+), His-tagged, expressed in E. coli BL21, Ni-NTA purified; monomer 55 kD apparent; glutamate IC50: native enzyme in Scgdh1 deletion strain extract) MTSEPEFQQAYDEIVSSVEDSKIFEKFPQYKKVLPIVSVPERIIQFRVTWENDNGEQEVAQGYRVQFNSAKGPYKGGLRFHPSVNLSILKFLGFEQIFKNALTGLDMGGGKGGLCVDLKGKSDNEIRRICYAFMRELSRHIGKDTDVPAGDIGVGGREIGYLFGAYRSYKNSWEGVLTGKGLNWGGSLIRPEATGFGLVYYTQAMIDYATNGKESFEGKRVTISGSGNVAQYAALKVIELGGIVVSLSDSKGCIISETGITSEQIHDIASAKIRFKSLEEIVDEYSTFSESKMKYVAGARPWTHVSNVDIALPCATQNEVSGDEAKALVASGVKFVAEGANMGSTPEAISVFETARSTATNAKDAVWFGPPKAANLGGVAVSGLEMAQNSQKVTWTAERVDQELKKIMINCFNDCIQAAQEYSTEKNTNTLPSLVKGANIASFVMVADAMLDQGDVF	42	14	0.4	14	6.9	14	–
